Laboratory results taken from patent US20160200813A1.
Substitutions are numbered along the chain they refer to.

How the values were obtained:
[1] = molecular target: Mouse LRP-8 expressed on HEK293 cells (mouse) (UniProt Q924X6); experiment: cell-based MSD binding assay on 293H-mLRP8 cells; curve label LRP8-11H1
[2] = molecular target: Mouse LRP-8 expressed on HEK293 cells (mouse) (UniProt Q924X6); experiment: mLRP8 cell binding
[3] = molecular target: Mouse LRP-8 expressed on HEK293 cells (mouse) (UniProt Q924X6); experiment: cell-based MSD binding assay on 293H-mLRP8 cells; curve label 11H1-15
[4] = molecular target: Mouse LRP-8 expressed on HEK293 cells (mouse) (UniProt Q924X6); experiment: cell-based MSD binding assay on 293H-mLRP8 cells; curve label 11H1-16, no plateau up to about 600 nM
[5] = molecular target: Mouse LRP-8 expressed on HEK293 cells (mouse) (UniProt Q924X6); experiment: cell-based MSD binding assay on 293H-mLRP8 cells; curve label 11H1-17
[6] = molecular target: Mouse LRP-8 expressed on HEK293 cells (mouse) (UniProt Q924X6); experiment: cell-based MSD binding assay on 293H-mLRP8 cells; curve label 11H1-18
[7] = molecular target: Mouse LRP-8 expressed on HEK293 cells (mouse) (UniProt Q924X6); experiment: cell-based MSD binding assay on 293H-mLRP8 cells; curve label 11H1-19
[8] = molecular target: Mouse LRP-8 expressed on HEK293 cells (mouse) (UniProt Q924X6); experiment: cell-based binding on MOUSE LRP8-HEK293, supernatant 1:5
[9] = molecular target: Mouse LRP-8 expressed on HEK293 cells (mouse) (UniProt Q924X6); experiment: cell-based binding on MOUSE LRP8-HEK293, supernatant 1:125
[10] = molecular target: Mouse LRP-8 expressed on HEK293 cells (mouse) (UniProt Q924X6); experiment: cell-based binding on MOUSE LRP8-HEK293, supernatant 1:25
[11] = molecular target: Mouse LRP-8 expressed on HEK293 cells (mouse) (UniProt Q924X6); experiment: fit of the FACS titration of FIG. 12A on mLRP8-transfected HEK293 cells; the column head prints EC50 only, nM is from legend paragraph 78 and the axis of FIG. 12A
[12] = molecular target: Mouse LRP-8 expressed on HEK293 cells (mouse) (UniProt Q924X6); experiment: cell-based ECL-MSD, 10 ug/ml Ab, mouse-LRP-8-HEK293
[13] = molecular target: Mouse LRP-8 expressed on HEK293 cells (mouse) (UniProt Q924X6); experiment: cell-based binding assay, mLRP8
[14] = molecular target: Mouse LRP-8 expressed on HEK293 cells (mouse) (UniProt Q924X6); experiment: FACS, mouse LRP8 cells

B1: humanized ML199-11H1.5B2VH.1/VL.1a (antibody, V domains shown)
VH: EVQLVESGGGLVKPGGSLRLSCAASRFTFSNYGMSWVRQAPGKGLEWVSTISSGGRYTYYPDSVKGRFTISRDNAKNSLYLQMNSLRAEDTAVYYCARDYLYAMDYWGQGTTVTVSS
VL: DVVMTQSPLSLPVTPGEPASISCRSSQSLVYSNGNTYLHWYLQKPGQSPQVLMYKVSNRFSGVPDRFSGSGSGTDFTLKISRVEAEDVGVYFCSQSTHVPLTFGQGTKLEIK
Work on B1 yielded an EC50 [1] of 0.3 nM and an EC50 [2] of 13.4 nM.

B2: LRP8-ML199.11H1.5B2 VH1/VL1A.15 (antibody, V domains shown)
VH: B1 VH with S63H
VL: B1 VL with G34E
Work on B2 yielded an EC50 [3] of 3.2 nM.

B3: LRP8-ML199.11H1.5B2 VH1/VL1A.16 (antibody, V domains shown)
VH: B1 VH with S63H
VL: B1 VL with N33T
In the case of B3, the EC50 [4] is reported as 625 nM.

B4: LRP8-ML199.11H1.5B2 VH1/VL1A.17 (antibody, V domains shown)
VH: B1 VH with S63H
VL: B1 VL with G34L
In the case of B4, the EC50 [5] is reported as 0.7 nM.

B5: LRP8-ML199.11H1.5B2 VH1/VL1A.18 (antibody, V domains shown)
VH: B1 VH with S63H
VL: B1 VL with G34K
For B5, the EC50 [6] was 0.8 nM.

B6: LRP8-ML199.11H1.5B2 VH1/VL1A.19 (antibody, V domains shown)
VH: B1 VH with S63H
VL: B1 VL with N33R
Binder B6 has an EC50 [7] of 24 nM.

B7: anti-LRP-8 BGK.2C8.E6.D3 [r/m IgG2a/K] (antibody, V domains shown)
VH: QVTLKESGPGILQPSQTLSLTCTFSGFSLNTYGMGVGWVRQPSGKGLEWLANIWWDDDKFYNPSLKNRLTVSKDTSNNQAFLRITNGDTADTATYFCARILGEDIGGALDAWGQGTSVTVSS
VL: DTVLTQSPALAVSPGERVSISCRASEGVNSYMHWYQQNPGQQSKLLIYRTSNLASGVPARFGGSGSGTDFTLTIDPVEADDTATYFCQQSWNDPPTFGGGTKLELK
For B7, the fold over isotype control [8] was 0.19 fold, the fold over isotype control [9] was 0.43 fold and the fold over isotype control [10] was 0.45 fold.

B8: anti-LRP-8 BGK.5D10.E4 [r/m IgG2a/K] (antibody, V domains shown)
VH: QVQLRETGPDLVQPTQTLSLTCTVSGFSLTNYPVQWVRQPPGSGLEWLGIMWPSGAADFNPALKSRLSISRDTSKSQFFLRMDNLQTDDTAIYFCARGRGYSSPYAMDAWGQGTSVTVSS
VL: DIQMTQSPASLSASLGETVSIECLASEDIYNNLAWYQQKPGKSPHLLIHFTSNLQDGVPSRFSGSGSGTQYSLKINSLESEDGATYFCLQDSEYPLTFGSGTKLEIK
B8 was tested, and the fold over isotype control [8] was 0.04 fold, the fold over isotype control [9] was 0.16 fold and the fold over isotype control [10] was 0.16 fold.

B9: anti-LRP-8 BGK.6E3.F4 [r/m IgG2a/K] (antibody, V domains shown)
VH: EVQLVESGGGLVQPGKSLKLSCAASGFTFSDYNMAWVRQAPKKGLEWVATIMYDGSRTFYRDSVKGRYTFSRDNAKSTLYLQMDSLRSEDTATYYCATGRNWFAYWGQGTLVTVSS
VL: DIIMTQSPSSLAVSAGETVTINCKSSQSLLSSGKQKNYLAWYQQKPGQSPKLLIYLASTRESGVPDRFIGSGSGTDFTLTISSMQAEDLAIYYCQQHYDTPLTFGSGTKLEIK
Work on B9 yielded a fold over isotype control [8] of 0.72 fold, a fold over isotype control [9] of 0.21 fold and a fold over isotype control [10] of 0.44 fold.

B10: anti-LRP-8 ML199-11H1.5B2 murine antibody (muFc) (antibody, V domains shown)
VH: EVQLVESGGDLVKPGGSLKLSCAASRFTFSNYGMSWVRQTPDKRLEWVATISSGGRYTYYPDSVKGRFTISRDNAKNTLYLQMSSLRSEDTAMYYCARDYLYAMDYWGQGTSVTVSS
VL: B1 VL with S7T, T14S, P15L, E17D, P18Q, Q50K, P64S, V88L, Q105A, I111L
B10 showed an EC50 [11] of 8.36 nM and a fold over mIgG control [12] of 23.1 fold.

B11: anti-LRP-8 BGK-9D10-2 antibody (CL-105967) (antibody, V domains shown)
VH: EVQLVESGGGLVQSGRSLKLSCAASGFTFSNYYMAWVRQAPKKGLEWVATITTSGSRSFYPDSVKGRFTISRDNAKSSLYLQINSLKSEDTATYYCARRGPLGYFDHWGRGVMVTVSS
VL: DIQMTQSPPSLPASLGDKVTITCQASQNINKYIAWYQQKPGKAPRLLIRFTSTLESDTPSRFSGSGSGRDYSFSISNVESEDFASYYCLHYDNLPPWTFGGGTKLELK
Binder B11 has an EC50 [13] of 0.43 nM.

B12: anti-LRP-8 BGK-7F7 chimeric antibody (CL-105960) (antibody, V domains shown)
VH: QVTLKESGPGILQPSQTLSLTCTFSGFSLSTYGLGVGWIRQPSGKGLEWLANIWWDDAKYYNPSLKNRLTISKDTSNNQAFLKIPNVDTADTARYYCARTTKPYYFDYWGQGVMVTVSS
VL: HFVLAQPNSVSTNLGSTVKLSCKRSTANIGSNYVNWYQQHEGRSPTTLIYRDDRRPDGVPDRFSGSIDRSSNSALLTINNVQTEDEADYFCQSYSSGINIFGGGTKLTVL
In the case of B12, the EC50 [13] is reported as 3.92 nM.

B13: anti-LRP-8 BGK-6B5-2 chimeric antibody (CL-105969) (antibody, V domains shown)
VH: B12 VH with T3S, K5Q, Y32F, L34M, A58D, P85T, R94T, T101A, Q111H
VL: B12 VL with S16N, A27G, R54K, I67F, S95N, I100F
B13 gave an EC50 [13] of 41.8 nM.

B14: anti-LRP-8 BGK-7A11 chimeric antibody (CL-105959) (antibody, V domains shown)
VH: B12 VH with L34M, S43A, K45T, A58D, A80V, P85T, R94T
VL: B12 VL with A27G, I29S, H40Y, L48M, R54K
Work on B14 yielded an EC50 [13] of 27.6 nM.

B15: anti-LRP-8 antibody CL-135325 (antibody, V domains shown)
VH: EVQLVQSGGGLVQPGGSLRLSCAASGFTFSIYAMSWVRQAPGKGLEWVSVISCSAGSTYYADSVKGRFTISRDNSKNTLYLQMNSLRAEDTAVYYCARHSVHEEFPFDVWGQGTLVTVSS
VL: DIQMTQSPSSLSASVGDRVTITCRASQSIGSYLNWYQQKPGKAPKLLIYAASSLQSGVPSRFSGSGSGTDFTLTISSLQPEDFATYYCQQSYIPPLTFGGGTKVEIK
B15 showed an FACS (ratio +/-) [14] of 21.2.

B16: anti-LRP-8 antibody CL-135359 (antibody, V domains shown)
VH: EVQLVQSGGGLVQPGGSLRLSCAASGFTFSSYAMSWVRQAPGKGLEWVSVISCSGGTTYYADSVKGRFTISRDNSKNTLYLQMNSLRAEDTAVYYCARNGGQFDLWGQGTLVTVSS
VL: B15 VL with S28G, G30C, S31T, I93N
For B16, the FACS (ratio +/-) [14] was 7.3.

B17: anti-LRP-8 antibody ab58216 (mFc) (antibody, V domains shown)
VH: EVHLQQSGPEVVKPGASVKISCKASGYIISGYFLNWVKQSHGKSLEWVGRINPYSGDTFFNQKFKGKATLTVDKSSNTAHMELRSLTSEDSAVFYCAREDIGRFAYWGQGTLVTVSA
VL: DVLMTQTPLSLPVSLGDQASISCRSSQTIVHSNGNTYLEWYLQKPGQSPKLLIYKVSNRFSGVPDRFSGSGSGTDFTLKISRVEAEDLGVYYCFQGSHAPPTFGGGTKLEIK
With B17 the fold over mIgG control [12] was 19.2 fold.

B18: anti-LRP-8 ML201-8F3.3D7 murine antibody (muFc) (antibody, V domains shown)
VH: B10 VH with Y32F
VL: B1 VL with S7T, T14S, P15L, E17D, P18Q, Q50K, P64S, V88L, Q105A, I111L
Binder B18 has a fold over mIgG control [12] of 21.1 fold.

B19: anti-LRP-8 ML201-2B4.2B1.2H10 murine antibody (muFc) (antibody, V domains shown)
VH: DVKLVASGGGLVKPGGSLKLSCAASGFTLSRYAMSWVRQTPEKRLEWVAYIRNGGDYIYYADTVKGRFTISRDNARNTLYLQMSSLKSEDTAMYYCTREGSYYNFDYWGQGTTLTVSS
VL: B17 VL with T28S, K50N, Y54F, S68I, A99V, P101W
B19 was tested, and the fold over mIgG control [12] was 1.2 fold.

B20: humanized ML199-11H1.5B2VH.1/VL.1 (antibody, V domains shown)
VH: B1 VH
VL: B1 VL with V2I, V51L, M53I, F92Y
B20 showed an EC50 [2] of 22.4 nM.

B21: humanized ML199-11H1.5B2VH.1/VL.1b (antibody, V domains shown)
VH: B1 VH
VL: B1 VL with M53I, F92Y
B21 showed an EC50 [2] of 7.92 nM.

B22: humanized ML199-11H1.5B2VH.1a/VL.1 (antibody, V domains shown)
VH: B1 VH with S49A
VL: B1 VL with V2I, V51L, M53I, F92Y
Work on B22 yielded an EC50 [2] of 6.83 nM.

B23: humanized ML199-11H1.5B2VH.1a/VL.1a (antibody, V domains shown)
VH: B1 VH with S49A
VL: B1 VL
Binder B23 has an EC50 [2] of 41.8 nM.

B24: humanized ML199-11H1.5B2VH.1a/VL.1b (antibody, V domains shown)
VH: B1 VH with S49A
VL: B1 VL with M53I, F92Y
In the case of B24, the EC50 [2] is reported as 19.6 nM.
